B1: H2-Kb / B2 (parent)
chain 1: GEQVEQRPPHLSVREGDSAVIICTYTDPNSYYFFWYKQEPGAGLQLLMKVFSSTEINEGQGFTVLLNKKDKQLSLNLTAAHPGDSAVYFCAVSQMSNYNVLYFGSGTKLTVEP
chain 2: EAAVTQSPRNKVAVTGGKVTLSCNQTNNHNNMYWYRQDTGHGLRLIHYSYGAGSTEKGDIPDGYKASRPSQENFSLILELATPSQTSVYFCASGTGGSGQLYFGEGSKLTVL
chain 3: not shown
chain 4: IQKTPQIQVYSRHPPENGKPNILNCYVTQFHPPHIEIQMLKNGKKIPKVEMSDMSFSKDWSFYILAHTEFTPTETDTYACRVKHDSMAEPKTVYWDRDM
chain 5: SIINFEKL
B2: H2-Kb / B3 (parent)
chain 1: GQQVKQSSPSLTVQEGGISILNCDYENDMFDYFAWYKKYPDNSPTLLISVRSNVDKREDGRLTVFLNKSGKHFSLHITASQPEDTAVYLCAAGNTGYQNFYFGKGTSLTVIP
chain 2: DSGVVQSPRHIIKEKGGRSVLTCIPISGHSNVVWYQQTLGKELKFLIQHYEKVERDKGFLPSRFSVQQFDDYHSEMNMSALELEDSAMYFCASSSLQGARNQAPLFGEGTRLSVL
chain 3: not shown
chain 4: B1 chain 4
chain 5: SIINFEKL
B3: H2-Kb / B14 (parent)
chain 1: GEQVEQRPPHLSVREGDSAVIICTYTDPNSYYFFWYKQEPGAGLQLLMKVFSSTEINEGQGFTVLLNKKDKQLSLNLTAAHPGDSAVYFCAVSARGNMGYKLTFGTGTSLLVDP
chain 2: GGIITQTPKFLIGQEGQKLTLKCQQNFNHDTMYWYRQDSGKGLRLIYYSITENDLQKGDLSEGYDASREKKSSFSLTVTSAQKNEMAVFLCASSMGQGASDYTFGSGTRLLVI
chain 3: not shown
chain 4: B1 chain 4
chain 5: SIINFEKL

Variants of: B1
Assay: % of reporter cells activated (NFAT-GFP), raw
Conditions: with B2; scale: % of reporter cells activated
Further: test concentration or dose not given here.

Ratio to parent: each site, then its substitutions
chain 5 L8: V 0.211; W 2.09; T 1.29; R 0.773; N 0.897; Q 2.52; P 3.65; S 1.08; Y 1.03
chain 5 S1: A 3.1; E 0.768; V 8.24; T 1.02; Y 6.51; R 5.53; K 2.57; L 7.3; H 1.74; D 2.9; C 0.773; Q 1.77; I 10.3; N 0.465; G 4.72; W 8.98; M 5.85; P 6.59; F 4.16
chain 5 N4: Q 0.259; H 0.584; R 0.324; T 0.373; A 0.432; S 0.422; P 0.503; C 0.162; M 0.535; Y 0.481; G 0.335; F 0.557; L 0.503; V 0.281; K 0.362; D 0.541; W 0.449; I 0.557; E 0.416

Variants of: B2
Assay: % of reporter cells activated (NFAT-GFP), raw
Conditions: with B3; scale: % of reporter cells activated

Ratio to parent: each site, then its substitutions
chain 5 N4: F 0.255; I 0.183; L 0.204; W 0.176; V 0.132; P 0.196; C 0.164; E 0.188; A 0.143; R 0.181; S 0.222; Q 0.0254; H 0.293; T 0.137; G 0.158; M 0.133; Y 0.0862; D 0.118; K 0.189
chain 5 F5: S 0.263; N 0.305; C 0.411; W 0.399; A 0.437; T 0.842; E 0.207; V 0.38; Q 0.343; L 0.842; H 0.428; Y 0.918; G 0.197; D 0.272; M 0.771; P 0.228; I 0.467; R 0.0406; K 0.121
chain 5 E6: N 0.831; S 1.25; G 1.37; W 2.6; Q 0.961; C 2.48; L 0.766; M 0.793; A 2.48; R 0.469; P 1.43; V 2.28; F 2.13; Y 1.97; K 0.587; I 0.819; T 1.87; H 0.651; D 1.39
chain 5 K7: D 0.0872; T 0.253; P 0.263; H 0.553; F 0.28; Q 0.201; I 0.37; W 0.634; V 0.215; N 0.601; S 0.219; C 0.201; A 0.18; R 0.199; M 0.315; E 0.175; Y 0.313; L 0.488; G 0.0497
chain 5 I3: L 1.21; F 0.216; Y 0.153; A 0.585; K 0.322; T 0.509; H 0.787; M 1.73; Q 0.614; P 1.7; D 0.144; R 0.0152; N 0.35; C 0.787; V 0.59; G 0.273; S 1.32; W 0.28; E 0.956
chain 5 S1: A 0.221; C 0.181
chain 5 I2: A 1.67; H 0.323; M 0.465; P 0.386; V 1.39; Q 0.228; C 1.29; K 0.551; E 0.706; T 2.16; G 1.01; F 0.945; W 0.631; S 1.73; D 1.57; N 0.605; R 0.777; L 1.35; Y 0.308
chain 5 L8: T 0.7; V 0.793; G 0.264; F 0.341; K 0.331; H 0.547; S 0.287; W 0.462; P 0.463; N 0.885; I 0.902; M 0.809; E 0.448; Q 0.258; D 0.434; C 0.526; Y 0.619; A 0.21; R 0.837

Variants of: B3
Assay: % of reporter cells activated (NFAT-GFP), raw
Conditions: with B14; scale: % of reporter cells activated

Ratio to parent, by site and new letter:
chain 5 I3: F 1; V 1.6; Y 1.28; N 0.978; R 0.858; T 1.47; S 1.6; A 1.33; P 2; L 1.33; M 0.84; E 1.28; Q 1.69; K 1.34; D 1.46; H 1.78; C 1.96; G 1.38; W 1.11
chain 5 E6: G 1.08; Q 0.876; D 0.618; P 0.867; C 1.16; N 1.07; V 1.69; R 0.373; A 0.418; W 1.2; L 0.622; S 0.751; Y 0.853; M 0.822; I 0.729; T 1.41; K 0.707; F 1.47; H 0.853
chain 5 K7: G 0.489; C 4.53; M 0.787; H 0.796; N 0.707; R 0.667; F 1.42; S 1.09; Y 1.69; T 1.73; W 1.26; P 1.64; I 0.96; A 0.907; D 0.791; Q 1.23; L 1.56; V 1.11; E 0.622
chain 5 N4: L 0.822; T 1.64; G 0.644; C 0.916; R 1.32; M 0.498; P 1.38; A 1.32; I 0.484; D 1.23; Q 1.07; S 1.1; Y 0.658; V 1.42; H 0.911; E 1.33; K 1.37; W 1.01; F 1.51
chain 5 S1: C 1.42; F 3.07; Y 1.33; L 1.13; E 0.867; R 2.04; N 0.231; P 0.751; V 8.49; D 1.38; H 1.24; T 1.42; A 0.942; I 0.76; Q 0.858; K 0.564; W 1.04; G 0.596; M 0.444
chain 5 L8: M 0.773; E 0.516; H 2.84; W 1.11; Q 1.24; T 1.38; A 0.609; P 1.33; I 1.51; N 1.16; V 0; C 1.41; F 0.44; G 1.38; S 0.716; Y 1.07; K 1.24; D 1.24; R 0.978
chain 5 I2: H 0.667; R 1.87; T 1.16; K 1.04; E 0.964; G 0.907; W 0.933; M 1.4; V 0.52; F 0.849; Y 0.88; P 2.36; D 1.47; S 1.08; C 0.933; A 0.778; L 1.73; Q 1.07; N 1
chain 5 F5: D 1.32; W 0.724; R 1.33; K 0.636; I 0.831; L 1.11; C 1.96; Y 0.578; M 0.893; P 0.791; G 1.07; A 1.33; S 1.56; T 0.609; E 1.08; V 1.17; Q 0.582; N 1.1; H 0.96
